Reference: patent US20240150440A1 (LUMEN BIOSCIENCE, published 2024)
Like-named read-outs stand apart in the source and are kept apart here.

Legend:
[1] = molecular target: SARS-COV-2 Wuhan Reference RBD (SARS-CoV-2, UniProt P0DTC2 319-541); assay: ELISA, RBD coated
[2] = molecular target: T1, recombinant SARS-CoV-2 RBD with C-terminal AviTag (SARS-CoV-2, UniProt P0DTC2 319-541); assay: ELISA, competition with coated ACE2-Fc for RBD
[3] = molecular target: T1, recombinant SARS-CoV-2 RBD with …; assay: BLI, biotinylated RBD on streptavidin biosensors
[4] = molecular target: T1, recombinant SARS-CoV-2 RBD with …; assay: ELISA, competition with coated ACE2-Fc for RBD [Cont. 7]
[5] = molecular target: T1, recombinant SARS-CoV-2 RBD with …; assay: BLI, biotinylated RBD on streptavidin biosensors [Cont. 8]
[6] = molecular target: T1, recombinant SARS-CoV-2 RBD with …; assay: ELISA, competition with coated ACE2-Fc for RBD [Cont. 8]
[7] = molecular target: T1, recombinant SARS-CoV-2 RBD with …
[8] = molecular target: T1, recombinant SARS-CoV-2 RBD with …; remark: listed apart in the source
[9] = molecular target: T1, recombinant SARS-CoV-2 RBD with …; remark: listed apart in the source
[10] = molecular target: T1, recombinant SARS-CoV-2 RBD with …; assay: ELISA, competition with coated ACE2-Fc for RBD [Cont. 2]
[11] = molecular target: T1, recombinant SARS-CoV-2 RBD with …; remark: listed apart in the source

B1: PP1176 MBP-5HVZ-PAPA-R2a-F3-H6 (VHH)
VHH: QVQLVESGGGLVQPGGSLRLSCAASGSITSINWMHWFRQAPGKDREGVASISQTGRGSYADSVKGRFTISRDNAKNTVYLQMNSLKPEDTAVYYCAAASRTGTPYNYWGQGTQVTVSS
notes: Form: Dimer
EC50 [1]: 0.29 nM
IC50 [2]: 10.4 nM

B2: PP1177 MPB-scTRP-PAPA-R2a-F3-H6 (VHH)
VHH: B1 VHH
notes: Form: Trimer
IC50 [2]: 83.6 nM

B3: PP911 MBP-5HVZ-S2b-F7-H6 (VHH)
VHH: QVQLVESGGGLVQPGGSLRLSCAASGSTLSNNAMHWFRQAPGKAREFVAAIGSSDSTDYKDSVKGRFTISRDNAKNTVYLQMNSLKPEDTAVYYCTALLDSGPGEYNYWGQGTQVTVSS
notes: Form: Dimer
EC50 [1]: 2.36 nM
Kd [3]: 44.3 nM
IC50 [4]: 43.6 nM

B4: PP913 MBP-5HVZ-S3a-C5-H6 (VHH)
VHH: QVQLVESGGGLVQPGGSLRLSCAASGSIKNTNAMHWFRQAPGKDREWVAGITSGGNSNYGDSVKGRFTISRDNAKNTVYLQMNSLKPEDTAVYYCAAFGYRYDQDYTYDYWGQGTQVTVSS
notes: Form: Dimer
EC50 [1]: 1.53 nM
Kd [3]: 1.42 nM
IC50 [4]: 2.8 nM

B5: PP1143 MBP-5HVZ-PAPA-R2b-D5-H6 (VHH)
VHH: QVQLVESGGGLVQPGGSLRLSCAASGYADEINMVHWYRQAPGKGREFVAAIASGGSTFYADSVKGRFTISRDNAKNTVYLQMNSLKPEDTAVYYCAAIPRPSLSYAHDYAYWGQGTQVTVSS
notes: Form: Dimer
IC50 [2]: 8.4 nM

B6: PP916 MBP-5HVZ-S3b-A8-H6 (VHH)
VHH: QVQLVESGGGLVQPGGSLRLSCAASGSIISRVKVHWFRQAPGKSREWVAGIDSGTASYYSDSVKGRFTISRDNAKNTVYLQMNSLKPEDTAVYYCAAENRGYGVDWGQGTQVTVSS
notes: Form: Dimer
EC50 [1]: 1.19 nM
Kd [3]: 12.1 nM
IC50 [4]: 2 nM

B7: PP927 MBP-5HVZ-R1i-C8-H6 (VHH)
VHH: QVQLVESGGGLVQPGGSLRLSCAASGRQFGAWRMHWYRQAPGKQREWVAGITSGTSGNYADSVKGRFTISRDNAKNTVYLQMNSLKPEDTAVYYCAATSHTTYHAEYWGQGTQVTVSS
notes: Form: Dimer
EC50 [1]: 1.43 nM
Kd [5]: 25.2 nM
IC50 [6]: 111 nM

B8: PP1155 MPB-scTRP-PAPA-R2b-D5-H6 (VHH)
VHH: B5 VHH
notes: Form: Trimer
IC50 [2]: 46.5 nM

B9: PP931 MBP-5HVZ-R5a-F5-H6 (VHH)
VHH: QVQLVESGGGLVQPGGSLRLSCAASGYHASILAMHWVRQAPGKEREWVASMTWSDMTQYSDSVKGRFTISRDNAKNTVYLQMNSLKPEDTAVYYCAATYVTRDRPWTHWGQGTQVTVSS
notes: Form: Dimer
EC50 [1]: 1.93 nM
Kd [5]: 11.9 nM
IC50 [6]: 5.6 nM

B10: PP934 MBP-5HVZ-S3a-H2-H6 (VHH)
VHH: QVQLVESGGGLVQPGGSLRLSCAASGAAFSKNALHWFRQAPGKGREWVASITSGSGTQYMDSVKGRFTISRDNAKNTVYLQMNSLKPEDTAVYYCAALAYSGGYDYWGQGTQVTVSS
notes: Form: Dimer
EC50 [1]: 1.07 nM
Kd [5]: 18.4 nM
IC50 [6]: 2.2 nM

B11: PP1131 MBP-4B0F-PAPA-R2b-D5-H6 (VHH)
VHH: B5 VHH
notes: Form: Heptamer
IC50 [2]: 14.5 nM

B12: R2B-D5 monomer (PP805) (VHH, not shown: large carriers; small tags and cut ends)
VHH: B5 VHH
Kd [7]: 10 nM
koff [7]: 0.00226 s⁻¹
kon [7]: 226000 M⁻¹ s⁻¹

B13: MBp-5HVZ-R2C-B3-H6 (VHH, not shown: large carriers; small tags and cut ends)
VHH: QVQLVESGGGLVQPGGSLRLSCAASGTYASYETIAWYRQAPGKQREKVARITGAGSSFYADSVKGRFTISRDNAKNTVYLQMNSLKPEDTAVYYCNADSIPPALRAANTGYWGQGTQVTVSS
IC50 [8]: 1.4 nM
Kd [8]: 33 nM

B14: MBP-R2C-F6-H6 (VHH, not shown: large carriers; small tags and cut ends)
VHH: QVQLVESGGGLVQPGGSLRLSCAASGRILAANIVHWYRQAPGKEREGVAGITTGGSNYYSDSVKGRFTISRDNAKNTVYLQMNSLKPEDTAVYYCNALGLGSASGSYESWGQGTQVTVSS
Kd [8]: ~3600 nM

B15: MBP-R2C-G6-H6 (VHH, not shown: large carriers; small tags and cut ends)
VHH: QVQLVESGGGLVQPGGSLRLSCAASGSIYKYSDVHWFRQAPGKAREAVALLTGAGTTIYGDSVKGRFTISRDNAKNTVYLQMNSLKPEDTAVYYCAAGQGFKATRTFDSWGQGTQVTVSS
Kd [9]: ~3900 nM

B16: MBP-5HVZ-R2D-A6-H6 (VHH, not shown: large carriers; small tags and cut ends)
VHH: QVQLVESGGGLVQPGGSLRLSCAASGSGASIGAMHWFRQAPGKGREWVASITSAGNTYYGDSVKGRFTISRDNAKNTVYLQMNSLKPEDTAVYYCNALAGANYESQWEEYNYWGQGTQVTVSS
IC50 [9]: 6.3 nM
Kd [9]: 19.6 nM

B17: MBP-5HVZ-R2E-D2-H6 (VHH, not shown: large carriers; small tags and cut ends)
VHH: QVQLVESGGGLVQPGGSLRLSCAASGHQLSTNATHWFRQAPGKNREFVASIGSGSSSYYADSVKGRFTISRDNAKNTVYLQMNSLKPEDTAVYYCTALGGDELDGMTYDYWGQGTQVTVSS
IC50 [9]: 6.8 nM
Kd [9]: 19.1 nM

B18: PP1148 MBP-5HVZ-PAPA-R5a-C5-H6 (VHH)
VHH: QVQLVESGGGLVQPGGSLRLSCAASGDIFSINALHWFRQAPGKQREEVAAITSGGSTGYADSVKGRFTISRDNAKNTVYLQMNSLKPEDTAVYYCAAQQARGGLDSDYWGQGTQVTVSS
notes: Form: Dimer
EC50 [1]: 0.3 nM
IC50 [10]: 1.1 nM

B19: PP1160 MPB-scTRP-PAPA-R5a-C5-H6 (VHH)
VHH: B18 VHH
notes: Form: Trimer
IC50 [10]: 2.9 nM

B20: PP1136 MBP-4B0F-PAPA-R5a-C5-H6 (VHH)
VHH: B18 VHH
notes: Form: Heptamer
IC50 [10]: 1.8 nM

B21: MBP-5HVZ-R2A-C5-H6 (VHH, not shown: large carriers; small tags and cut ends)
VHH: QVQLVESGGGLVQPGGSLRLSCAASGTWGNIQYLSWFRQAPGKRREFVAAITPNNGTNYADSVKGRFTISRDNAKNTVYLQMNSLKPEDTAVYYCTAVLWYTTKEGPYDYWGQGTQVTVSS
IC50 [8]: 13.3 nM

B22: PP1149 MBP-5HVZ-PAPA-R5a-E5-H6 (VHH)
VHH: QVQLVESGGGLVQPGGSLRLSCAASGYDFDILRMAWFRQAPGKEREMVAAITSAESVNYEDSVKGRFTISRDNAKNTVYLQMNSLKPEDTAVYYCATYDYTDDYGYASWGQGTQVTVSS
notes: Form: Dimer
EC50 [1]: 2.5 nM
IC50 [10]: 14.2 nM

B23: PP1896 Cerberbody (2-R2B-D5 and 1-S3b-C8) (other, not shown: large carriers)
chain 1: QVQLVESGGGLVQPGGSLRLSCAASGYADEINMVHWYRQAPGKGREFVAAIASGGSTFYADSVKGRFTISRDNAKNTVYLQMNSLKPEDTAVYYCAAIPRPSLSYAHDYAYWGQGTQVTVSSHHHHHH
chain 2: QVQLVESGGGLVQPGGSLRLSCAASGSIENIERMHWYRQAPGKQRELVAVIDSGGTTRYADSVKGRFTISRDNAKNTVYLQMNSLKPEDTAVYYCAAVWLTNAESTQEYWGQGTQVTVSSTVILEYAHRLSQDILSDALQQWASHHHHHHHH
Kd [11]: < 0.001 nM
koff [11]: < 1e-07 s⁻¹
kon [11]: 248000 M⁻¹ s⁻¹
